The values below come from patent publication US20190002515A1 (published 2019).

The target in this test is T1, GAGE-1 peptide on HLA-DRA*01:01 / HLA-DRB5*01:01 (human).
T1 peptide: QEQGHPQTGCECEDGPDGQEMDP
Briefly: cytokine release.

B1: TCR specific for GAGE-1 of SEQ ID NOs 7 and 8 (TCR, V domains shown)
Valpha: EDKVVQSPLSLVVHEGDTVTLNCSYEVTNFRSLLWYKQEKKAPTFLFMLTSSGIEKKSGRLSSILDKKELSSILNITATQTGDSAIYLCAERTQGGSEKLVFGKGTKLTVNP
Vbeta: DAGITQSPRHKVTETGTPVTLRCHQTENHRYMYWYRQDPGHGLRLIHYSYGVKDTDKGEVSDGYSVSRSKTEDFLLTLESATSSQTSVYFCATQRNTEAFFGQGTRLTVV
For B1, the binding result is given as “recognises”.
